Measured values from US5756684, “Cloning and expression of PUR protein” (Mount Sinai School of Medicine of the City of New York).

Columns and labels:
[1] = target: T1, GST-Pur-alpha (Homo sapiens, UniProt Q00577 SEQ:1-322); experiment: EMSA; 7.5 pmol; Tat at 1:1 enhances binding nearly 10-fold; settings: tags: N-terminal GST; label: 32P end
T1 sequence: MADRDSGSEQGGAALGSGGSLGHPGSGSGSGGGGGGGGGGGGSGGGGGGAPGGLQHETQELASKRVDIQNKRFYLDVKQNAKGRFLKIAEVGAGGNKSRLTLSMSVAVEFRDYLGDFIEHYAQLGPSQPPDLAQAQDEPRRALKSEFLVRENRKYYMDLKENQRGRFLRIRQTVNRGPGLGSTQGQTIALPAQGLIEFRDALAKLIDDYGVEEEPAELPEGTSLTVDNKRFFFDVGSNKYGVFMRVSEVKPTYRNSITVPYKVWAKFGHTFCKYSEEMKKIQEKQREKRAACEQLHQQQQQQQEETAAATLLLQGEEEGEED
Description: FIG. 21A. Specificity of binding of Purα to the JCV upTAR element. The different oligonucleotide probes used for the indicated reactions are: JCV+, the purine-rich single strand of the upTAR element; JCV ds, the double-stranded upTAR element, only the pyrimidine-rich strand of which is labeled; JCV−, the pyrimidine-rich strand of the upTAR element.
8.1.2. Binding of PURα to the JVC upTAR PUR Element in the Presence or Absence of Tat All gel shifts were performed as described in Section 6.1.2. using ^32P end-labeled 24-mer oligonucleotide probe representing a dimer of the upTAR element. The purine-rich strand of this oligonucleotide is: 5'-[…]-3' SEQ ID NO:51. For both panels A and B, all Tat, Purα and Purα deletion mutant proteins were employed GST fusion proteins prepared by purification on glutathione agarose columns as described for FIG. 20 and eluted with glutathione. In both panels for lanes labeled +, 7.5 pmoles of each indicated protein were used. Specificity of binding of Purα to the JCV upTAR element. The different oligonucleotide probes used for the indicated reactions are: JCV+, the purine-rich single strand of the upTAR element; JCV ds, the double-stranded upTAR element, only the pyrimidine-rich strand of which is labeled; JCV−, the pyrimidine-rich strand of the upTAR element. Effect of Tat upon biding of a series of Purα deletion mutants to the JCV upTAR element. […]

[2] = target: GST-Tat (HIV-1, UniProt P04608 P04608:1-86); experiment: EMSA; Tat stated not to bind the upTAR element itself; settings: tags: GST; label: 32P end

B1: JCV+ (upTAR purine-rich strand dimer) (ssDNA)
DNA: GGAGGCGGAGGCGGAGGCGGAGGC
B1: binds [1]; no binding [2].
